Test results: patent US20120289454

What was measured:
[1] = system: GGHYrFK-amide (synthetic)
[2] = system: GGHYrFK-amide (synthetic); assay: cleavage_in_vitro; conditions: Cu complex; KM 0.85 µM; turnover number 32; 1 mM ascorbate, 1 mM H2O2
[3] = system: GGhyrfk-amide (synthetic); conditions: Cu complex; Vmax 2.86 RFU/min

GGCAGAAAGCGUCUAGCCAUGGCGUUAGUAUGCC [HCV IRES SL IIb RNA]
Kd [1]: 0.044 µM
activity [2]: 0.53 min-1 (kcat)
Kd [3]: 6.09 µM
